From article doi:10.1101/836718, “A unique conformational escape reaction of HIV-1 against an allosteric integrase inhibitor” (bioRxiv, 2019)

Experiments:
[1] = molecular target: the molecule itself; assay: SEC; HPLC, TSKgel-SWXLG3000 column; INHis at 50 µM; running buffer 20 mM HEPES pH 7.4, 750 mM NaCl, 3.75 mM CHAPS; 4°C as possible; self-association (tetramer, dimer, monomer)
[2] = molecular target: T1, His-tagged lens epithelium-derived growth factor p75 (LEDGF/p75) (human (sequence derived from 293T cells), UniProt O75475 1-530); assay: pull-down; F-IN (2 µM) and LEDGF/p75His (2 µM) 30 min at RT in 50 mM HEPES pH 7.0, 300 mM NaCl, 2 mM MgCl2, 2 mM BME, 5% glycerol, 0.2% NP-40, 20 mM imidazole; His 60 Ni resin; wash with 1 M NaCl; Coomassie staining; conditions: both partners purified
T1 construct: also called LEDGFHis; LEDGF/p75His; source: E. coli Rosetta (DE3) pLysS, purified (His-TALON column); not shown: His6, N-terminal, kept
T1 sequence (O75475 whole entry): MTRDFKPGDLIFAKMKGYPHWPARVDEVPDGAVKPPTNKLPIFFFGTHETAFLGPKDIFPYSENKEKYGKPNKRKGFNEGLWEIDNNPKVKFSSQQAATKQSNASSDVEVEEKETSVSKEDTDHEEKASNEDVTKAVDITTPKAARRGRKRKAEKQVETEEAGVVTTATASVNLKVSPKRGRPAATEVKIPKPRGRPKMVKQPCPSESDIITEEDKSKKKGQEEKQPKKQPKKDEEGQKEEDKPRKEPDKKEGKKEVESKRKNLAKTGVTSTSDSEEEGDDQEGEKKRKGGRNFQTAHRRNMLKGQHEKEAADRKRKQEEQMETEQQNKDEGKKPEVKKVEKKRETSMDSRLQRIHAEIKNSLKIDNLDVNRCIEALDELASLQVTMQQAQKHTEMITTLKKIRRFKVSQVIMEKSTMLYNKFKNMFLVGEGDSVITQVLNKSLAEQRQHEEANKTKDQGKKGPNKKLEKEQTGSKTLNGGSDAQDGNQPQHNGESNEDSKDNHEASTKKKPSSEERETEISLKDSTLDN

Row | Binder | stoichiometry N [1] | binding result [2]
1 | recombinant His-tagged HIV-1 integrase, wild type (IN^WT) (enzyme, pET30a IN-6xHis; also called INHis; IN-6xHis; source: E. coli Rosetta (DE3) pLysS, purified (His-TALON column); not shown: His6, C-terminal, kept) FLDGIDKAQEEHEKYHSNWRAMASDFNLPPVVAKEIVASCDKCQLKGEAMHGQVDCSPGIWQLDCTHLEGKVILVAVHVASGYIEAEVIPAETGQETAYFLLKLAGRWPVKTVHTDNGSNFTSTTVKAACWWAGIKQEFGIPYNPQSQGVIESMNKELKKIIGQVRDQAEHLKTAVQMAVFIHNFKRKGGIGGYSAGERIVDIIATDIQTKELQKQITKIQNFRVYYRDSRDPVWKGPAKLLWKGEGAVVIQDNSDIKVVPRRKAKIIRDYGKQMAGDDCVASRQDED | 2 | 
2 | Flag-tagged HIV-1 integrase, wild type (F-IN^WT) (enzyme, pET30a Flag-IN; also called Flag-IN; source: E. coli Rosetta (DE3) pLysS, purified (by previous reports, Kessl et al., 2012); not shown: FLAG, N-terminal, kept) FLDGIDKAQEEHEKYHSNWRAMASDFNLPPVVAKEIVASCDKCQLKGEAMHGQVDCSPGIWQLDCTHLEGKVILVAVHVASGYIEAEVIPAETGQETAYFLLKLAGRWPVKTVHTDNGSNFTSTTVKAACWWAGIKQEFGIPYNPQSQGVIESMNKELKKIIGQVRDQAEHLKTAVQMAVFIHNFKRKGGIGGYSAGERIVDIIATDIQTKELQKQITKIQNFRVYYRDSRDPVWKGPAKLLWKGEGAVVIQDNSDIKVVPRRKAKIIRDYGKQMAGDDCVASRQDED |  | binds
